Here are results for two molecules from patent US20020115110A1 (GlaxoSmithKline, published 2002).

For experiment [1], the target named is T1, TR1Fc (human, UniProt O00300 22-401, limits assumed).
T1 construct: also called TR1 Fc fusion protein; TR1 (osteoprotegerin, OPG) fused to hinge-CH2-CH3 of human IgG1
T1 sequence: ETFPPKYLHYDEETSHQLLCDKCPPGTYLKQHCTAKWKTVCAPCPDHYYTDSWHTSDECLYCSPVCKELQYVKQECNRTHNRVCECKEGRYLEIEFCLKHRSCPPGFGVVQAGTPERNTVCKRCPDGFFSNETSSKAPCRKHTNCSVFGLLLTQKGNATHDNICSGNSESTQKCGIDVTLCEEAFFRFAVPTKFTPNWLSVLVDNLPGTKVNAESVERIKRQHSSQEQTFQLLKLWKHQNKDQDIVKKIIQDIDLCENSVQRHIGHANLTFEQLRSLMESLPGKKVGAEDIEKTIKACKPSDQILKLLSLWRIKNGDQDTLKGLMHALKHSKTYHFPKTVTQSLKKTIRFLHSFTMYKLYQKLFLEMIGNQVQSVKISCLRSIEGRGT
As to the kind of experiment: SPR (BIAcore 2000), Fc fusion captured on immobilized protein A, ligand injected. The protocol:
(§1) Surface plasmon resonance. Protein A was immobilized on to a research grade carboxymethyldextran chip (CM5) using amin coupling procedures described previously (4). Flow cell 1 was activated with NHS/EDC for 5 min. Protein A was injected a a concentration of 1 ug/ml in NaOAc buffer (10 mM, pH 5.0) until 1000RUs of protein were coupled. Remaining activated groups were blocked with a 7 min injection of 1M ethanolamine. A control surface was created by repeating the coupling procedure in a flow cell2 without incorporating protein A. In a BIAcore 2000 biosensor (BIAcore Inc. Uppsala, Sweden) TR1Fc or TR2Fc were then injected at a flow rate of 100 ul/min followed by injection of TL2 or TL4, and the binding to receptor monitored by chances in surface plasmon resonance relative to the control chip. In these experiments, TR1Fc bound to TL2 but not TL4 and TR2Fc bound to TL4 but not TL2.

The target of experiment [2] is T2, sTL2 (Homo sapiens (Human), UniProt P50591 97-281).
T2 construct: also called soluble TL2; TRAIL
The description is as above. The protocol:
as §1

T2 sequence (P50591 97-281): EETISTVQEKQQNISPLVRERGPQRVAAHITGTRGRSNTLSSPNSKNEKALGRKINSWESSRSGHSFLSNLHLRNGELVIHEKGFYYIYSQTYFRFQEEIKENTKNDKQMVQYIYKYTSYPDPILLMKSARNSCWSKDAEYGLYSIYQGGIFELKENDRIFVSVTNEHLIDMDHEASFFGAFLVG

B1: sTL4 (ligand, not shown: small tags and cut ends)
chain: HHHHHHSDDDDKQERRSHEVNPAAHLTGANSSLTGSGGPLLWETQLGLAFLRGLSYHDGALVVTKAGYYYIYSKVQLGGVGCPLGLASTITHGLYKRTPRYPEELELLVSQQSPCGRATSSSRVWWDSSFLGGVVHLEAGEKVVVRVLDERLVRLRDGTRSYFGAFMV
notes: also called soluble TL4
As for B1, the binding result in experiment [1] is listed as “no binding”.

B2: TR2Fc (Fc fusion, not shown: a dimerising Fc or GST)
chain: LPFCKEDEYPVGSECCPKCSPGYRVKEACGELTGTVCEPCPPGTYIAHLNGLSKCLQCQMCDPAMGLRASRNCSRTENAVCGCSPGHFCIVQDGDHCAACRAYATSSPGQRVQKGGTESQDTLCQNCPPGTFSPNGTLEECQHQTKCSWLVTKARSIEGRGT
notes: Secreted from mammalian cells as a dimer and purified on protein A. Residues 1-192 include the putative leader peptide, which is removed on secretion; also called TR2 (HVEM) extracellular domain fused to hinge-CH2-CH3 of human IgG1; product of plasmid TR2Fclink
As to B2, the binding result in experiment [2] is “no binding”.
